From a protein production outcome set (Wang et al. 2014)

Experiment: label from the status in PepcDB records

Row | Sequence | protein production
1 | MSLSSVKDFPKIKAIRSFIIGGVGSGGDYHNVKGGHWLIDSDISTPASKWEQYKKSRTSWGINVLGSFLVEIEATDGTVGFATGFGGPPACWLVHQHFERFLIGADPRNTNLLFEQMYRASMFYGRKGLPIAVISVIDLALWDLLGKVRNEPVYRLIGGATKERLDFYCTGPEPTAAKAMGFWGGKVPLPFCPDDGHEGLRKNVEFLRKHREAVGPDFPIMVDCYMSLNVSYTIELVKACLDLNINWWEECLSPDDTDGFALIKRAHPTVKFTTGEHEYSRYGFRKLVEGRNLDIIQPDVMWLGGLTELLKVAALAAAYDVPVVPHASGPYSYHFQISQPNTPFQEYLANSPDGKSVLPVFGDLFIDEPIPTKGYLTTADLDKPGFGLTINPAARAKLIPSDYLFKVPEIPQNLSTGKEIKSNEQPDKPNGTLDSLAAKVESLTTSTSSEGHHHHHH | not failed
2 | MNRFNYIGMLAYVALSMSSCDDSFDVSSKADGVLAVSQEGFNTLQSYNVGEKYTADLWIQQGGLKSTASVVSFSVDKALLDSMNIADGTSYELLPADCYQLTKSSVDIPANERLLKGELTYDPAKIQELSGYDHLKYVLPLRATSSGMPFVSGRSVLLLGFKVSEPIVTIMNAGVEEINLAEVKELPVQIGVPFTNKWEISCRLESRQSVIDAYNTAHGTYFSMLPSDAYVTPETPILHSGVNQVTATYKLKDDILPGNYMLPVQIAEVTSDATIRADKDVYAAYSIIKEGDKLSKTDWKIVSFTTEEASGEGSNNGHAKHLIDGNIETFWHSRWQGGSDPLPYEIIIDMNHRVKIAQIELLPRGRGSNNPIKVVRFEASEDGTNWESIGQFGFTNQDAALKYYVKSSTARYIKLVIPDGVGNGTVAAIRELDVRGTVVN | failed
3 | MDNLFTPSAKSVLVLAQEQAKYFKHQAVGTEHLLLALAIEKNGIANKVLQQYAVSEDDIREEIERFTGYGTLSNVGKDTYLPYSPKAKEILSVAGDEAKRLGANKIGTEHLLLAMLSDESILSSRILMNLNLDLGQTRKVVLRKLG | failed
4 | MTDRQLIVLAALNIMVAVGAGAFGAHGLRRVVDPTLLAIWHTGVLYHLIHALGLFVVALLGARFGSPLLSMAGLVMFIGILLFCGSLYVLVLTGTRWLGAVTPLGGVAFLAAWAMVAWAAWRAPA | failed
5 | MKLERKNSGIIFLIFGVVFVLNALNPVMELLYIKAKGEIAEAKIVAYDFIQRSSRSGRGSSYKYIPIIEFFDGKEIVQVPVTMNSLNEELDIIGLDVKVSYLKNTPSKVIIDDKLFWLYEISNSLVVVGSFLLMVMLSQMSVETYRGRELTFNVPTKNKIIFLISGLPGVIGTFLSFYYGFITLKYNGLGFTSGTLILSLLIIGVYLLGIVNFLKIKNNYWG | failed
6 | MTDKKDFAASEHNNNDNIHAEVVPRQGISIIWFVPFIALIFGLWLTAKVVSEQGTFITIEFDNGSGIIPNKTEIRYKGLVTGLVKKVVPSADLQRVIAEVEISKNFTDYLTENTRFWLVSADISLQGVSGLDTLISGSYITIMPDTNQEADSQDHFVALTEAPTLDMSTPGLHLTLHTDVLGSISENSPISFKQIPIGHVTGYHYKESSKKIGINIYIKPEFAHLVKENSLFYNTSGVQVTASLTGGVKVNTESLASIMAGGISVDNLSYQTELAPAKNGQTFPLHADFQSAEMGHEVELTLEWNSGIDHNAAILFQGLTIGVIESFSKIDPVSRKITATAKVNPRVVPYLTDQSQFYIVAPQISLAGLTNAKTLLTGNYLSIRPSLAGNPSNKFNVFSSKPPYKYTEPGLHLMLTSSDRSSLQIGSNVYYKQQVVGNIQAIETTAPERHLIHIHVQPKFSHYVNHSSRFYNNSGVKISANLLGVDIQAQSLQSILTGGIAFTSQNSTQESQKKLVKNGDSFSLYANNKLAEQNISFTLNYMASEHISSDTRLLYRGIEIGAIHQTKIQGNKQQLQLGLLPEYEHILKADTQFYIVKPNLSLSGASDTDALFGGTYITFNLGQGKAKNQFTLFSQPPVKLASSPGLQLSLSTDHANVATPGSAISYRGITIGQVDNVSLNKIDDEIKVNITIDEEHRGLLKSTSRFYNAGGMTISGGLSDFVVKTESIDAILRGGISFYNPEVLLPTSLITNTQVEELSNFTLFKHEEHAKDAGQTISIHFNDISGLKVNTKVIYQEQTLGTIERLIFTADKVGVTALVLLNDSGSQFARKGTKFWKIEPQIGLVGSKNVAALLDGAFIGLLPSHNVEAKLKNEFEALELAPTVEQLSYGLNIKLTTARLGSVRVGNPVLYRQIKVGKVIGIDLSATADQVNIFINIAKRYAPLVNGNSQFWNTSGINIEASIFSGINIDSESIETLIAGGIAFATPDIDENNDKEQNDETKSLPASFILHQDVDEDWLEWQPKIAINNQTTSAE | failed
7 | MKAPEGIACGKRQLVVSDTGGGRLLSYSIENGSVRGGTEIKAEQVPYPTKVQLTSKGEILVIDGKLRRIAHFSPEGSFAGYLDLKGVPAPATIAPRGIRVDDKDNIHILDIFGARVIVTDAAGTFQSQMPFPEGYRFISDLAVSASGTTLLLDSVASRVYAAARGETAFKPLTDGMKEYLQFPTSIATDKQGKIFILDQTGNAVVTLGQDGSFQGRQLNIGWKNSFLHYPSQLCISEENDIDVVIADRNNNRIQVFRVVRLEHHHHHH | failed
8 | STGNGWFAGFPIFSWYFGRDGLWMGLAANTVGMSHLTREHMRTLLIYSKDGRIPHEIGLSNDGMQSYSISDRIFNTMYMSIDSSLLWLLSNKSLENWESKGFEHDNVTRVFKFASSCDSDGDGLLENNFSDGLIGWPETWANIRNGKAVDINALWVKTVELYSNELNIANAEELKKKYLESFFSNVSFTDFIDNSGYAKSVKSAMQFVPGIFFTNNNIVETIKQLAEGNLTPWGVRSVSVDDPMFDGGYHTGTVWPLMTGWFVLSAYKNGLKDIAFKQLMTFSELAFSSPDLGRINETYDSMIANPTGQFAQGWSSSMLVLSVMQGLLGIDSIEF | failed
9 | MRFRNAILFVALAIAWGSAFTAIKAGLEYFPPILFAAFRYDLAGLLMLGYAVYATDQWVPKSRTDWIVVGIGGSLLIAAYHIFLFVGEQGTTSAAAAIVVSLSPILTTGFARAFLPDERLTTLGIVGLLVGFLGVGVLSNPDPGNLLNPRTVSLFLVFLAAASFALGSVLTRRFDDDLEIETMEAWSMLLGAVLMHGISFGVSESVADVQWTTEAVLALLYLVVVASALGFLIYFDLLERLGPIEINLVSYAAPVVAAATGLLFLSETPTVYTGVGFTCILVGFGLLKRDALRNEVARFSGTPNRGE | failed
10 | MLTVHRDARDYQIIFLCSFLSLGILARDWSLSPLVIAVVLATALTVQSLFTINQQGNFSRWFSLDTWQSLWRHQGWKSALITGLGLCLLLRANHLSTLILAASLAIASKFLLQAWGKHWFNPANFGIIAALTLTGDAWVSPGQWGTTLWLGAVFLAAGGLVLGKVGRWDTSIMFLAVYAGLDLARNAWLGWPPEVSFHHLENGSLLVFALFMLTDPRSIPNARSSRLIWATAIAIFSLILQYHFYLPTALFWALFCLSPLTVLLDRQFPAPRFQWWQKKNPVPSN | failed
11 | METPYTDHLSPEDFEHVYEPAEDSFLLLDALEKDLEYLDRLQPSLCVELGSGSGVIITALAKKLAGFSLCLATDINPKACNATRRTATRNGARLDSIRCSLADALRPRSVDVLLFNPPYVVTSDEELQTQQFDSHSESSTDRNLVFSWAGGQDGRRVTDILLKQLDDILSPRGVLYLLLLRENKPEEIIKYLEGLQFRAVKFMERRIPGEHLCILKVTRYLASS | failed
12 | MTPRHQRPLARRKLLVALGGAVVAAPVAAAVAPHALAGIGPDGPAPAAAGALPLTIVNDTGSFGNADVHVYIVGNVDGRQVRVTPDGTVAPVALSDNGADGYTDYAIGLSGSGETKLSLPHLSGRIYVSLGEKLKFKVVADGAGNAALQYPAGWVESDPNYAVLHDCAEFTYNAAGMFCNTTMVDMFSVPLAIRLTGADDRTTGTVRPGGRAAVFEAVRKVEEFAPLVVDDTRVIAPGHGLDAGLFPKDYLAPYIDEVWSTYTGKDLRITTNAGTFTGRVRGDRLTFDGPAQVSFAKPSTRDVLFCDGNLAAPNDGTTGPVAAVLGAGFNRSTLVSSAEQPTTDPATFYGTALTNHYAKAVHAATEDGRAYGFAFDDVADFASYIQDTAPTGIRLTLGAFLEHHHHHH | failed
13 | MSQLNSVWVFSDNPERYAELFGGAQQWGQQVYAIVQNTEQAQAVMPYGPKCIYVLEQNDALQRTENYAESIAALLKDKHPAMLLLAATKRGKALAARLSVQLNAALVNDATAVDIVDGHICAEHRMYGGLAFAQEKINSPLAIITLAPGVQEPCTRDISHQCPTETVPYVAPRHEILCRERRAKAASSVDLSKAKRVVGVGRGLAAQDDLKMVHELAAVLNAEVGCSRPIAEGENWMERERYIGVSGVLLKSDLYLTLGISGQIQHMVGGNGAKVIVAINKDKNAPIFNYADYGLVGDIYKVVPALISQLNR | failed
14 | MGHHHHHHSHMLITVYCVRRDLSEVTFSLQVSPDFELRNFKVLCEAESRVPVEEIQIIHMERLLIEDHCSLGSYGLKDGDIVVLLQKDNVGPRAPGRAPNQPRVDFSGIAVPGTSSSRPQHPGQQQQRTPAAQRSQGLASGEKVAGLQGLGSPALIRSMLLSNPHDLSLLKERNPPLAEALLSGSLETFSQVLMEQQREKALREQERLRLYTADPLDREAQAKIEEEIRQQNIEENMNIAIEEAPESFGQVTMLYINCKVNGHPLKAFVDSGAQMTIMSQACAERCNIMRLVDRRWAGVAKGVGTQRIIGRVHLAQIQIEGDFLQCSFSILEDQPMDMLLGLDMLRRHQCSIDLKKNVLVIGTTGTQTYFLPEGELPLCSRMVSGQDESSDKEITHSVMDSGRKEH | failed
15 | METNFSIPLNETEEVLPEPAGHTVLWIFSLLVHGVTFVFGVLGNGLVIWVAGFRMTRTVNTICYLNLALADFSFSAILPFRMVSVAMREKWPFGSFLCKLVHVMIDINLFVSVYLITIIALDRCICVLHPAWAQNHRTMSLAKRVMTGLWIFTIVLTLPNFIFWTTISTTNGDTYCIFNFAFWGDTAVERLNVFITMAKVFLILHFIIGFSVPMSIITVCYGIIAAKIHRNHMIKSSRPLRVFAAVVASFFICWFPYELIGILMAVWLKEMLLNGKYKIILVLINPTSSLAFFNSCLNPILYVFMGRNFQERLIRSLPTSLERALTEVPDSAQTSNTDTTSASPPEETELQAM | failed
16 | MSERAGEKKLDLLITGVGGQGAILASDIIGKAAVISGIPIRAAETHGMAQRGGSVVNHIRLGSDLGSMIPKKGADIMLALEPMEAVRYLDFLKDGGVIIVNTQSIIPVTVTSGLSKYPEVQEILDALSEKYVVKAFNADELAHEAGSRLAMNVAMVGAVSGYLPISKEVLLESVKVLVPKKTIEINIRAFEMGREEVEES | not failed
17 | MSKDAQQISALRRFSVSIISVALLVISGTVGYMYLENMSLLDALYMTVITVATVGFSEVRPLDDVGKIFTMVLIVGGTGIFFFTLTSVAVFFVSGEWKEHWEQQRNERMLRKLNDHFIICGYGRLGGSVAEELRAKAVPFVVIDNMIDNVLRARDEGFLAIKGNAADEEVLADAGLHRAKGLIAAAGNDAENVFIVLTARNLKPNLYIVARADCDGSESKLRRAGAEKVVMLYRSAGKRMASLLTEPELEEYLDELSNANNLNLRIAQYLVGDNSPLVGKSFQEVDLYNNHRINVVGYKLPDGELHTTPRPAEIIQKNGTIIVIGKSDDLEMLCKLAQGETQR | failed
18 | FHPVYSVQLEQKLVEKFNLKRALISLDQPNTNEQRKQVAALVSSYLNNNLQEGMAVAVGQGQNVAAVADHAGIVTQRNARFVSAIGGTHRSGDIINADHICRRLAKKYGGSSETLYAPAYVNDPSLRSAFMEHATIKETLSQARKAEFALVGIGDMDENSHMVKLGFFTPKEFVEARLNDGIVGDIGGFDFFKLDGTDADTLMRGRVIGLEMEDLRQIPNVVAMASESRKALSIMGALRTGVIDVLATSVSCAMALLNLAENEE | not failed
19 | MKLQVLPLSQEAFSAYGDVIETQQRDFFHINNGLVERYHDLALVEILEQDRTLISINRAQPANLPLTIHELERHPLGTQAFIPMKGEVFVVVVALGDDKPDLSTLRAFITNGEQGVNYHRNVWHHPLFAWQRVTDFLTIDRGGSDNCDVESIPEQELCFA | not failed
